# Laboratory results: US20100316648A1 (published 2010)
# Ends that are not written are not given here.
# T1: plasminogen fragment K4 (UniProt P00747 374-459)
# T1 construct: range 354-439
# T1 sequence (looked up): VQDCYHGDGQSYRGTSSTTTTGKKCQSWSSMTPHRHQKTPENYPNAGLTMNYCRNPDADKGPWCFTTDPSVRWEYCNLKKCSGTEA
# B1: Plg-RKT carboxyl-terminal peptide CEQSKLFSDK (SEQ ID NO: 33) (peptide)
# peptide: CEQSKLFSDK
# modifications: also: coupled to bovine serum albumin (BSA), attachment site not given here
# notes: also called C-terminal peptide of mouse Plg-RKT; Plg-RKT polypeptide
# B2: Plasminogen (ligand, UniProt P00747 20-810, looked up)
# chain: EPLDDYVNTQGASLFSVTKKQLGAGSIEECAAKCEEDEEFTCRAFQYHSKEQQCVIMAENRKSSIIIRMRDVVLFEKKVYLSECKTGNGKNYRGTMSKTKNGITCQKWSSTSPHRPRFSPATHPSEGLEENYCRNPDNDPQGPWCYTTDPEKRYDYCDILECEEECMHCSGENYDGKISKTMSGLECQAWDSQSPHAHGYIPSKFPNKNLKKNYCRNPDRELRPWCFTTDPNKRWELCDIPRCTTPPPSSGPTYQCLKGTGENYRGNVAVTVSGHTCQHWSAQTPHTHNRTPENFPCKNLDENYCRNPDGKRAPWCHTTNSQVRWEYCKIPSCDSSPVSTEQLAPTAPPELTPVVQDCYHGDGQSYRGTSSTTTTGKKCQSWSSMTPHRHQKTPENYPNAGLTMNYCRNPDADKGPWCFTTDPSVRWEYCNLKKCSGTEASVVAPPPVVLLPDVETPSEEDCMFGNGKGYRGKRATTVTGTPCQDWAAQEPHRHSIFTPETNPRAGLEKNYCRNPDGDVGGPWCYTTNPRKLYDYCDVPQCAAPSFDCGKPQVEPKKCPGRVVGGCVAHPHSWPWQVSLRTRFGMHFCGGTLISPEWVLTAAHCLEKSPRPSSYKVILGAHQEVNLEPHVQEIEVSRLFLEPTRKDIALLKLSSPAVITDKVIPACLPSPNYVVADRTECFITGWGETQGTFGAGLLKEAQLPVIENKVCNRYEFLNGRVQSTELCAGHLAGGTDSCQGDSGGPLVCFEKDKYILQGVTSWGLGCARPNKPGVYVRVSRFVTWIEGVMRNN
# modifications: directly biotinylated in the assays of Examples 7-9; coupled to Sepharose in Example 1
# notes: The same entry is used for unlabelled, biotinylated and Sepharose-coupled plasminogen; also called Plg; biotinylated plasminogen
# Assays:
# Plasminogen [1] = molecular target: B2; assay: ELISA, detection control: plasminogen bound to BSA-coupled peptide, isotype control instead of anti-plasminogen MAb
# Plasminogen [2] = molecular target: B2; assay: competition ELISA, soluble peptide against biotinylated plasminogen on immobilized …-BSA
# [3] = molecular target: T2, plasminogen fragment K1-3 (UniProt P00747 99-357); assay: competition ELISA against biotinylated plasminogen on immobilized peptide
# T2 construct: range 79-337 or 79-353; it may not count on the precursor entry
# Description: (§1) 9. Recognition of Plg-RKT by Plasminogen Fragments in Other Assays to Define the ligand recognition specificity of Plg-RKT for plasminogen. the Plg-RKT polypeptide, […] (SEQ ID NO: 33), was coupled to microtiter wells. Plasminogen was directly biotinylated and then incubated with the immobilized peptide and detected with streptavidin-HRP, as above. (Plasminogen bound to the peptide in a concentration-dependent manner. In controls for specificity, biotinylated-Plg binding was competed by unlabeled Plg and no biotinylated-Plg binding to the reverse peptide was detected.) Plasminogen domains containing disulfide bonded kringle (K) structures were obtained by elastase digestion as described ³⁹. (K1-3 is comprised of the plasminogen amino acid sequences, Tyr⁷⁹-Val³³⁷ or Tyr⁷⁹-Val³⁵³. K4 is contained within the plasminogen amino acid sequences, Val³⁵⁴-Ala⁴³⁹. K5-PD is contained within the plasminogen amino acid sequences, Val⁴⁴²-Asn⁷⁹⁰ and contains kringle 5 as well as the latent protease domain.)
# plasminogen fragment K4 = molecular target: T1, plasminogen fragment K4; assay: as above
# Description: as §1
# [4] = molecular target: B1; assay: ELISA on BSA-coupled peptide, anti-plasminogen MAb detection
# Text: Our isolation method was consistent with exposure of the carboxyl-terminus of Plg-RKT (with its carboxyl-terminal lysine) on the cell surface and also with the ability of the carboxyl-terminal domain to bind to plasminogen. For verification, we tested whether a synthetic peptide, corresponding to the C-terminus of Plg-RKT could bind plasminogen. The peptide, […] (SEQ ID NO: 33) corresponding to the ten C-terminal amino acids of Plg-RKT with cysteine substituted for R₁₃₈) was coupled to bovine serum albumin (BSA) and then coated onto wells of microtiter plates at 10 μg/ml. The wells were blocked with 5% BSA. Plasminogen (0.2 μM) was incubated with the wells, followed by our anti-plasminogen MAb ³⁶ and detection with HRP-conjugated goat anti-mouse IgG (Biosource, Camarillo, Calif.). Plasminogen bound to the peptide in a concentration dependent manner with 50% maximal binding achieved at a plasminogen concentration of ˜10 nM. The binding was specific because it was blocked in the presence of epsilon-aminocaproic acid (EACA), consistent with the ability of EACA to inhibit plasminogen binding to differentiated Hoxa9-ER4 cells. […] In controls for the detection method, O.D.₄₉₀ values obtained using an isotype control antibody or in the absence of added plasminogen were <5% of the values for plasminogen binding to the BSA-coupled peptide detected with anti-plasminogen MAb.
molecule,measurement,setting,value
isotype control antibody (Example 4),O.D.490 as percent of the value with anti-plasminogen MAb,Plasminogen [1],< 5%
"CEQSRFFIDK (also called wild type peptide) [peptide CEQSRFFIDK (SEQ ID NO: 34), corresponding to the C terminus of human Plg-RKT]",IC50,Plasminogen [2],1000 nM
B1,binding result,[3],binds
same,binding result,plasminogen fragment K4,binds
B2,EC50,[4],~10 nM
